Data as given in the nanobody polyreactivity screen of Harvey et al. (2022).

Test: yeast display, Sf9 membrane polyspecificity reagent, FACS + sequencing; frameworks hold sequencing errors
How it was run: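 In a synthetic yeast display library (Saccharomyces cerevisiae BJ5465), nanobody expression was induced with galactose for 36–48 hours. FACS gates were set low and high (top ~1%) using anti-HA fluorescence for expression and streptavidin fluorescence for binding of the Sf9 membrane reagent. Each polyreactivity label is drawn from the gate of origin.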

Row | Sequence | polyreactivity (PSR sort gate)
1 | QVQLVESGGGLVQAGCSLRLSCAASGRIFDYYAMGWNRQAPGKERELVAAISYSGGSTHYADSVKGRFTISRDNAKNSVYLQMISLKPEDTAVYYCAGWAWSGVEYDYWGQGSQVTVSS | low polyreactivity
2 | QVQLVESGGGLVQAGCSLRLSCAASGRISKRYTMGWYRQAPGKERELVAAINSSTSTSYADSVKGRFTISRDNAKNTVYLKMNSRKPEDTAVYYCNARYNYSYDYNYWGQGTQVTVSS | low polyreactivity
3 | QVQLVESGGGLVQAGCSLRLSCAASGRTFDSYTMGWYRQAPGKERELVAAIRSSGGRTYADSVKGRFTISRDNAKNTVYLQMNSLKPEDTAVYYCDADRRGSHYYRYKYGYWGQGTQVTVSS | high polyreactivity
4 | QVQLVESGGGLVQAGCSLRLSCAASGRTFRYYAMGWYRQAPGKERELVAAISGRGGSTYYADSVKGRFTISRDNAKNTVYFQMNSLKPEDTAVYYCADSFYSIRYDYWGQGTQVTVSS | high polyreactivity
5 | QVQLVESGGGLVQAGCSLRLSCAASGRTFYYYAMGWYRQAPGKERELVAAISKSGGSTYYADSVKGRFTISRDNAKNTVYLQMNSLKPEDTAVYYCAALTTHAPHSYNYWGQGTQVTVSS | low polyreactivity
6 | QVQLVESGGGLVQAGCSLRLSCAASGSIFFSYAMGWYRQAPGKEREFVAAINSDDASTYADSVKGRFTISRDNAKNTVYLQKNSLNPEDTAVYYCAASFLWSWYDYWGQGTHVTVSS | low polyreactivity
7 | QVQLVESGGGLVQAGCSLRLSCAASGSIFGFYAMGWYRQAPGKERELVATIRSSGGNTYYADSVKGRFTISRDNAKNTVYLEMNSLKPEDTGVFYCAASFLIRAYVDRNDYWGLGTQVTVSS | low polyreactivity
8 | QVQLVESGGGLVQAGCSLRLSCAASGSIFSTYAMGWYRQAPGKERELVAAITSDGTYADSVKGRFTISRDNARNTVYLQMNSLKPEDTAVYYWAAYYPYTRHGDYWGQGTQVTVSS | low polyreactivity
9 | QVQLVESGGGLVQAGCSLRLSCAASGSIFTSYAMGWYRQAPGKERELVAAINRSSGTTYYAHSVKGRFTISRDTAKNTVYLQMNSLKREDTAVYYCAKEYGIYTDTPYYYWGQGTQVTVSS | low polyreactivity
10 | QVQLVESGGGLVQAGCSLRLSCAASGSIFYFYGMGWYRQAPGKERELVASITYSGTSTYYADSVKGRFTISRDNAMITVYLQMNSLKPEDTAVYYCAASFYTVNSWYDSWGQGTQVTVSS | low polyreactivity
11 | QVQLVESGGGLVQAGCSLRLSCAASGSIIIGNAMGWYRKSPGKERELVAVINGSDGTTYYADSVKGRFTNSRDNAKNTVYLQMNSLKPEDTAVYYCNADFIDPSVYDYNYWGQGTQVTVSS | low polyreactivity
12 | QVQLVESGGGLVQAGCSLRLSCAASGSISSFYAMGWYRQAPGKERELVAGITSGGSTNYADSVKGRFTISRDNAKNTVYLQMNSLKPEDTAVYYCAAVYKGAGTHFDVFVKEFDYWGLGTQVTVSS | low polyreactivity
13 | QVQLVESGGGLVQAGCSLRLSCAASGSTFKRYAMGWYRQAPGKERELVASISSGGSTNYADSVKGRFTISRDNAKNTVYLQMNSLKPEDTAVYYCATRGHYRQTINYWGQGTQVSVSS | high polyreactivity
14 | QVQLVESGGGLVQAGCSLRLSCAASGSTFSPNAMGWYRQAPGKERELVASIRIGGRTNYADSVKGRFTISRDNAKNTVYLQMNSLKPEDTAVYYCARRHYYSRFTVSKLSRYDYWGQGTQVTVSS | high polyreactivity
15 | QVQLVESGGGLVQAGCSLRLSCAASGSTLYTYAMGWYRQAPGKERELVATISWSGSSTYYADSVKGRFTISRDNAKNTVYLQMNSLKPEDTAVYYCAAQYHYWYRLDYWGQGTQVTVSS | high polyreactivity
16 | QVQLVESGGGLVQAGCSLRLSCAASGSTVYYKAMGWYREAPGKERELVAAITSGGRTKYADSVKGRFTISRDNAKNTVYLQMNSLKPEDTAVYYCNTYNRRSGTLPKPYDYWGQGTQVTVSS | high polyreactivity
17 | QVQLVESGGGLVQAGCSLRLSCAASGYIFYPYAMGWYRQAPGKERELVAAISGSGSGTYYADSVKGRFTISRDNAKNTVYLQMNSLKPEDTADYYCAKYVYDNVWMDYWGQGTQVTVSS | high polyreactivity
18 | QVQLVESGGGLVQAGCSLRLSCASSGLTFSFYAMGWYRQAPGKERELVAAISKGGGSTSYADSVKGRFTISRDNAKNTVYLQMNSLKPEDTAVYYCAARYYYSRSRLYYYWGQVTQVTVSS | high polyreactivity
19 | QVQLVESGGGLVQAGCSLRLSCSASGLTFYANAMGWYRQAPGKERELVAAISKSGGNTYYAYSVKGRFTISRDNAKNTVYLQMNSLKPEDTAVYYCAVGYPRGYVDVDSWGQGTQVTVSS | high polyreactivity
20 | QVQLVESGGGLVQAGDSLRLSCAASGFIFYYYTMGWYRQAPGKEREFVAAITYSGGRTYYADSVKGRFTISRDNAKNTVYLQMNSLKPQDTAVYYCADVPRYGPSSRMDYWGQGTQVTVSS | high polyreactivity
21 | QVQLVESGGGLVQAGGCLRISCAASGSTFPNYAMGWYREAPGKERELVARISYNVGRTYYADSVKGRFTISRDNAKNTVYLQMNSLKPEDTAVYYCAAGVGWRYRVRWYYSLGDYWGQGTQVTVSS | high polyreactivity
22 | QVQLVESGGGLVQAGGCLRLSCAASGSIFDHYVMGWYREAPGKERELVAAISSGDRPNYADSVKGRFTISRDNAKNPVYLQMNSLKPEETAVYYCAAVVHVSPYSYDYWGQGTQVTVSA | low polyreactivity

Row | Sequence | polyreactivity (PSR sort gate)
23 | QVQLVESGGGLVQAGGCLRLSCASSGRTFHLYAMGWYRQAPGKERELVAAITWSSGRTYYSDSVKGRFTISRDNAKNTVYVQMKSLKPEDTAVFYCAADVWGGLLPGYDYWGQGTQVTVSS | high polyreactivity
24 | QVQLVESGGGLVQAGGCLRLSCDASGFTFAFYAMGWYRQAPGKEIELVAAISRRGGSTTYADSVKGRFTISRDNAKNTVYLQMHSLKPEDTAVYYCNAVSTRNPGPDSYYWGQGTQVTVSS | high polyreactivity
25 | QVQLVESGGGLVQAGGGLRLSCAASGFIFSLYAMGWYRQAPGKERELVAAISKRGGSTNYADSLKGRFTISRDNAKNTVYLQRNSLKPDVTAVYYCAATRNYYGRYDYWGQGTQVTVSS | high polyreactivity
26 | QVQLVESGGGLVQAGGGLRLSCAASGFTFYLYVMGWYRQAPGKERELVARISRSGGTTYYADSVKGRFTISRDNAKNTVYLQMNSLKPEDTAVYYCAARRYGVPPTYDYCGQGTQVTVSS | high polyreactivity
27 | QVQLVESGGGLVQAGGIIRLSCAASGLIFSRYAMGWYRQAPGKETELVAAITQSGTSTYYADSVKGRFTISRDNANNTVYLQMTILKPEDTAVYYCNAYPQYRYDYWGQGTQVTVSS | low polyreactivity
28 | QVQLVESGGGLVQAGGILRLICAASGRIFGPYAMGWYRQAPGKERELVADITGGGTYYADSVKGRFTISRDNAKNTVYLQMFSLKPEDTSVYYCAADYSSYTSFRYDYWGQGTHVTVSS | low polyreactivity
29 | QVQLVESGGGLVQAGGILRLICAASGSIFGKYTMGWYRHAPGKERELVAGITYRAGSTYYADSVKGRFTISRDNAKNTVYLQMNSLKPEDTAVYYCAARFYFRWYYYGSYANYWGQGTQVTVSS | high polyreactivity
30 | QVQLVESGGGLVQAGGILRLICAAYGRILAYNSMGWYRQAPGKQRELVAGISWSGGSTYYADSVKGRFTISRDNAKNTVYLQMNSLKPEDTAVYYCAKTPYYRYAKQRYTSSHDYWGQGTQVTVSS | high polyreactivity
31 | QVQLVESGGGLVQAGGILRLICADSGSTFAQYAMGWYRPAPGKERELVAAISRLGASTYYAYSVKGRFTISRDIAKNTVYLQMNSLKPEDTVVYYCNAVRGEKMGYWGQGTQVTVSS | high polyreactivity
32 | QVQLVESGGGLVQAGGILRLNCAASGFIFRRYAMGWSRQAPGKERELVAAISSGGTSTYYADSVKGRFTISRDNAKYTVYLQKNSLKPEDTAVSYCNVDTDPYYWGGDYYWGQGTQVTVSS | high polyreactivity
33 | QVQLVESGGGLVQAGGILRLSCAAPGSTFRKCAMGWYRQAPGKERELVAAISRGGTSTYYADSVKGRFTISRDNAKNTVYLQMNSLKPEDTAVYSCRYFRYSYGTKYDYWGQGTQVTVSS | high polyreactivity
34 | QVQLVESGGGLVQAGGILRLSCAASGFIFAKYAMVWYRQAPGKERELVAAITSGGSTNYADSVKGRFTISRDNAKNTVYLQMNSLKPEDTAVYYCNRGFDWWYRYRHYDYWGQGTQVTVSS | low polyreactivity
35 | QVQLVESGGGLVQAGGILRLSCAASGFIFVDYSMGWYREAPAKESQLVAAISGRDGSTYYADSVKGRFTISRDNAKNTVYLQMNSLKPEDTAVYYCAADRIHSGTLYDYDYWGQGTQVTESS | low polyreactivity
36 | QVQLVESGGGLVQAGGILRLSCAASGFIFVDYVMGWSRQAPGKERELVAAINRNGGRPYYADSVKGRFTISRDNEKNTVYLQMNRLKPEDTAVYYCAAVYRSDRYHWYYYWGQGTQVTVSS | high polyreactivity
37 | QVQLVESGGGLVQAGGILRLSCAASGIIFQQYAMGWYRQAPGKERELVAAITYSGDGTYYADSEKGRFTISRDNAKNTVYLQMNSLKPEDTAVYYCNTDRKSRWARYEYWGQGTQVTVSS | low polyreactivity
38 | QVQLVESGGGLVQAGGILRLSCAASGLTFSRYDMGWYRPEPGKERELVAAITWSGSSTYYADSVKGRFTLSRDNAKNTVYLQMNSLKRVDTAVYYCAARYGYSRGPYYRSYYWGQGTQVTVSS | high polyreactivity
39 | QVQLVESGGGLVQAGGILRLSCAASGNIFPLYAMGWYRQAPGKERELVAAITWSTTSTYYADSVKGRFTISRDNAKNTVYLQMNSLKPEDTAVYYCAAGAYRRNKSDYYYWGQGTQVTVSS | low polyreactivity
40 | QVQLVESGGGLVQAGGILRLSCAASGRIFRVNTMGWYRKAPGKERELVAAIRSSGTRTYYADSVKGRFTISRDNAKNTVYLQMNSVKPEDTAVYYCAAYAWRYQAWEFGYWGQGTQVTVSS | high polyreactivity
41 | QVQLVESGGGLVQAGGILRLSCAASGRIFYYNAMGGYRQAPGKERELVAAITSGGSTNYADSVKGRFTISRDNAKNTVYLQMNSLKPEDTAVYYCAADYYYYVAGVHYDYWGQGTQVTVSS | low polyreactivity
42 | QVQLVESGGGLVQAGGILRLSCAASGRIIRSYAMGWYRHAPGKERELVAAITSGGSTNYADSVKGRFTISRDNANNTVYLQMNSLKPEDTAVYYCAARWPWYGKLRYYYWGQGTQVTVSS | high polyreactivity
43 | QVQLVESGGGLVQAGGILRLSCAASGRILDGYAMGWYRQAPGKERELVAAISSRGGRTYYADSVKGRFTISRDNAKNTVYLQMNSLKPEDTAVYYCAATRYGTYEYNYWGQGTQVTVSS | high polyreactivity
